Data: patent US20180111972A1 (Stanford University, published 2018)
Like-named read-outs stand apart in the source and are kept apart here.

How the values were obtained:
[1] = target: T1, VEGFR2-His (residues 1-764 of VEGFR2, Ig-like domains 1-7, with hexahistidine tag) (human, UniProt P35968 20-764); test: yeast surface display titration, flow cytometry
T1 construct: range 1-764; Monomeric form, expressed in FreeStyle 293-F cells; also called VEGFR-His
Method: (§1) Cells were incubated in large enough volumes to avoid ligand depletion and appropriate time to reach equilibrium. During the last hour of incubation, yeast were incubated with 1:250 dilution of chicken anti-c-Myc (Invitrogen) in PBSA. […] Yeast were washed, pelleted, and resuspended in PBSA immediately before analysis by flow cytometry using BD FACSCalibur or BD Accuri C6. Flow cytometry data were analyzed using FlowJo (v7.6.1 and v10, Treestar) or BD Accuri C6 software. Statistical analysis was performed using GraphPad Prism 6.

[2] = target: T2, PDGFRβ-His (residues 1-314 of PDGFR-β with C-terminal hexahistidine tag) (human, UniProt P09619 33-314); test: yeast surface display titration, flow cytometry
T2 construct: range 1-314; Monovalent form, expressed in FreeStyle 293-F cells; also called PDGRβ-His; PDGFR-His
Method: as §1

[3] = target: T2, PDGFRβ-His (residues 1-314 of PDGFR-β …); test: yeast surface display, flow cytometry titration of PDGFRβ-His (panel 'PDGFRβ binding')
Method: as §1

[4] = target: T1, VEGFR2-His (residues 1-764 of VEGFR2, …); test: yeast surface display, flow cytometry equilibrium titration of VEGFR2-His, normalized fluorescence
Method: as §1

[5] = target: T1, VEGFR2-His (residues 1-764 of VEGFR2, …); test: yeast surface display titration, flow cytometry; remark: listed apart in the source
Method: as §1

[6] = target: T2, PDGFRβ-His (residues 1-314 of PDGFR-β …); test: yeast surface display titration, flow cytometry; remark: listed apart in the source
Method: as §1

[7] = target: T3, soluble PDGFRβ (Fc or His format not stated for the experiment) (human, UniProt P09619 33-532); test: yeast surface display, flow cytometry titration of soluble receptor; panel 'PDGFR binding', Fc or His form not given
T3 construct: extracellular domain

[8] = target: T3, soluble PDGFRβ (Fc or His format not …); test: binding titration (FIG. 12); taken as yeast display, receptor format not stated; to PDGFR; receptor format not stated
[9] = target: T2, PDGFRβ-His (residues 1-314 of PDGFR-β …); test: yeast surface display, flow cytometry equilibrium titration of PDGFRβ-His (panel 'PDGFR-His'), normalized fluorescence
Method: as §1

[10] = target: T1, VEGFR2-His (residues 1-764 of VEGFR2, …); test: yeast surface display titration, flow cytometry; remark: listed apart in the source
[11] = target: T2, PDGFRβ-His (residues 1-314 of PDGFR-β …); test: yeast surface display titration, flow cytometry; remark: listed apart in the source
[12] = target: T4, soluble VEGFR2 (Fc or His format not stated for the experiment) (human, UniProt P35968 20-764); test: binding titration (FIG. 12); taken as yeast display, receptor format not stated; to VEGFR; receptor format not stated
T4 construct: extracellular domain

[13] = target: T2, PDGFRβ-His (residues 1-314 of PDGFR-β …); test: titration on yeast-displayed scPDGF, flow cytometry, anti-His
Method: as §1
(§2) Bound protein was detected using fluorescently-labeled anti-His and anti-mouse-Fc antibodies.

[14] = target: T5, PDGFRβ-Fc (residues 1-314 of PDGFR-β fused to the Fc region of mouse IgG2a) (human; mouse, UniProt P09619 33-314); test: yeast surface display titration; PDGF taken as yeast-displayed scPDGF
T5 construct: range 1-314; Expressed in FreeStyle 293-F cells; also called PDGRβ-Fc; PDGFR-Fc; not shown: Fc region of mouse IgG2a

[15] = target: T5, PDGFRβ-Fc (residues 1-314 of PDGFR-β …); test: titration on yeast-displayed scPDGF, flow cytometry, anti-mouse-Fc
Method: as §1, §2

T2 sequence (P09619 other isoform, or with tags, fused parts or gaps limits assumed, form in doubt): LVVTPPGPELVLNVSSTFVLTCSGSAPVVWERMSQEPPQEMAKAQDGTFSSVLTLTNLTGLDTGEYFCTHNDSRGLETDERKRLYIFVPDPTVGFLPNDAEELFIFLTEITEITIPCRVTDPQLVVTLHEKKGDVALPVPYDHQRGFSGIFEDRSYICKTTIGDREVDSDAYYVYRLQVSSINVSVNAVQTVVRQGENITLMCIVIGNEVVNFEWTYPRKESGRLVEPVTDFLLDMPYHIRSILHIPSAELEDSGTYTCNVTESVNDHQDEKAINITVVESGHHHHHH
T1 sequence (P35968 other isoform, or with tags, fused parts or gaps limits assumed, form in doubt): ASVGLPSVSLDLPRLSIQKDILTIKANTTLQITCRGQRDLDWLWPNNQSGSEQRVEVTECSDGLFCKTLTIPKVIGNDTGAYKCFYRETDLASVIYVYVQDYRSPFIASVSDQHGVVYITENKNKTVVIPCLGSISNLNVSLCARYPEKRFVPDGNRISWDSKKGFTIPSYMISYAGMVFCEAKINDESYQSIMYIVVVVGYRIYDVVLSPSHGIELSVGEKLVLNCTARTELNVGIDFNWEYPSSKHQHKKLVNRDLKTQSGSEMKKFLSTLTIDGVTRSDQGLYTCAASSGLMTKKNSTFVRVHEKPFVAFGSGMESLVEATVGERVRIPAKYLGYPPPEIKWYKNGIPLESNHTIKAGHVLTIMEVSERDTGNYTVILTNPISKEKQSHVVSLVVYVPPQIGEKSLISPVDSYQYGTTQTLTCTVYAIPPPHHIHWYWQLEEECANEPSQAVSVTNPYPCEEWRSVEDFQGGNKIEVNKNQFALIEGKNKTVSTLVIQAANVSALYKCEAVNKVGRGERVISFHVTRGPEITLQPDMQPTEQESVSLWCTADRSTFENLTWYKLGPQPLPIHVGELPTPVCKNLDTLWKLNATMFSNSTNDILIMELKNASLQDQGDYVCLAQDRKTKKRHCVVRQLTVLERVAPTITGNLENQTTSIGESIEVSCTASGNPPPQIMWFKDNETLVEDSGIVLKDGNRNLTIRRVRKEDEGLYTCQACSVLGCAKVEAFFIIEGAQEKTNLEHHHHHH
T3 sequence (P09619 33-532): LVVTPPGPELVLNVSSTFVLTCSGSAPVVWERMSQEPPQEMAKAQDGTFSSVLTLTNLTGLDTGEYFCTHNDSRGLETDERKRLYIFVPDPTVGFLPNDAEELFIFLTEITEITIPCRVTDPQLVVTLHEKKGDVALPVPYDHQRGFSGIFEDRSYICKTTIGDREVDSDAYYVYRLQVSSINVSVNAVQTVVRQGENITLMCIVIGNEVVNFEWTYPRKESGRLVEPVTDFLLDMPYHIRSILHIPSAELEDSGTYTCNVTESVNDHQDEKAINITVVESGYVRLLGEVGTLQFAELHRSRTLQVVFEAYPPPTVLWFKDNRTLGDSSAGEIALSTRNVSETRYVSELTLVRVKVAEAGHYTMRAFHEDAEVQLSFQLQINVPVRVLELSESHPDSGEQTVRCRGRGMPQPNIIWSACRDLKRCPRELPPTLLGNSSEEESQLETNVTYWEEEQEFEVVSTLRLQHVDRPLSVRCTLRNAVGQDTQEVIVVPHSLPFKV
T5 sequence (P09619 33-314 limits assumed, form in doubt): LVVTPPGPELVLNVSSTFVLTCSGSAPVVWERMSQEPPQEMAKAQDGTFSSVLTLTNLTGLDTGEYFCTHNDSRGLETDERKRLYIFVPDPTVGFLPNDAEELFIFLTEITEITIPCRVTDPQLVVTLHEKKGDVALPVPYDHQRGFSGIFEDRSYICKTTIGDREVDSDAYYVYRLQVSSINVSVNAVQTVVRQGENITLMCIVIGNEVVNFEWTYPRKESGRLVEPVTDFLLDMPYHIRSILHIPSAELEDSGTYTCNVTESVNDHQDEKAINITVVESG
T4 sequence (P35968 20-764): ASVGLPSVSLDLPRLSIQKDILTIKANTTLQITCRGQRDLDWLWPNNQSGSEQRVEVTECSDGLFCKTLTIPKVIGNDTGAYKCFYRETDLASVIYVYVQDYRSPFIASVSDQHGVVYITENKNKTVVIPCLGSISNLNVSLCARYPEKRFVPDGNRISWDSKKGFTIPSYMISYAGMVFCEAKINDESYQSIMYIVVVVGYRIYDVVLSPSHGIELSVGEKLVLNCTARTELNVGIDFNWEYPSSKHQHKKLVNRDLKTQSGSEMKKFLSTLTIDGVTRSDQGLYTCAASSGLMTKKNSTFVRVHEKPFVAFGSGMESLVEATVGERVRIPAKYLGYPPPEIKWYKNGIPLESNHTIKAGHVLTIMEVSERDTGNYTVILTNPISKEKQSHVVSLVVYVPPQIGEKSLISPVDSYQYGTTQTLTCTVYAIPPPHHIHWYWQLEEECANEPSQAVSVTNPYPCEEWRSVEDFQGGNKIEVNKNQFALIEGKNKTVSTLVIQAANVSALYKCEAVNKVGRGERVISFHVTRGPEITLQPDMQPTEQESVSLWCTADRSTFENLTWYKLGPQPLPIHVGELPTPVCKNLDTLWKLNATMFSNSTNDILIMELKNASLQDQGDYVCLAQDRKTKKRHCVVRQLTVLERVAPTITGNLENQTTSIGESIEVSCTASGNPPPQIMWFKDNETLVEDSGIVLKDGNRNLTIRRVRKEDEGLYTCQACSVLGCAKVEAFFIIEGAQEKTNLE

Binder	Kd [1] [pM]	Kd [2] [pM]	EC50 (read off the curve) [3] [pM]	EC50 (read off the curve) [4] [pM]	Kd [5] [pM]	Kd [6] [pM]	EC50 (read off the curve) [7] [pM]	Kd [8] [pM]	EC50 (read off the curve) [9] [pM]	fold improvement compared to PV6 [10] [fold]	fold improvement compared to PV6 [11] [fold]	Kd [12] [pM]	Kd [13] [pM]	Kd [14] [pM]	Kd [15] [pM]
PVAM (4-22 RF), yeast-displayed (designed binder, Combines K87R and I182F with F20L, E28G, Q71R and D160H) IAEPAMIAECHPIETLVDILQEYPDEIGYIFKPSCVPLMRCGGCCNNRNVQCRPTEESNITMQIMRIKPHRGQHIGEMSFLQHNKCRCETVAAGSTSGSGKSSEGKGEVVKFMDVYQRSYCKTRTEVFEISRRLIDRTNANFLVWPPCVEVQRCSGCCNHEGLECVPTQVQLRPVQVRKIEFVRKKPIFKKATVTLEDHLACECRPKKD	1100	390	~300	~1000	1100	390	~200	210	~400	200	1100	2100			
scPDGF, yeast-displayed (ligand) IAEPAMIAECKTRTEVFEISRRLIDRTNANFLVWPPCVEVQRCSGCCNNRNVQCRPTQVQLRPVQVRKIEIVRKKPIFKKATVTLEDHLACKCETVAAGSTSGSGKSSEGKGIAEPAMIAECKTRTEVFEISRRLIDRTNANFLVWPPCVEVQRCSGCCNNRNVQCRPTQVQLRPVQVRKIEIVRKKPIFKKATVTLEDHLACKCETVAA													310000	~40	28
